Article doi:10.1101/346296

Tests used:
[1] = target: WT nucleosomal array (recombinant Xenopus laevis histone octamers on 601-177-12 or 601-177-36 DNA) (Xenopus laevis); test: AUC
[2] = target: WT nucleosomal array with Sir2/4 complex added beforehand (S. cerevisiae | Xenopus laevis) (UniProt P06700); test: AUC

stoichiometry N (molecules of Sir3 per array) [1] | stoichiometry N (molecules of Sir3 per array) [2] | stoichiometry N (Sir2/4 per nucleosome) [1] | stoichiometry N (complexes bound per array) [1] | stoichiometry N (molecules of Sir2/4 per array) [1] | Substance
22 | 22 | – | – | – | FLAG-tagged Sir3 protein (from UniProt P06701 1-978) (natural protein)
– | – | 1 | 4 | 11 | TAP-tagged Sir2/4 complex (from UniProt P06700;P11978)
